According to patent US20050158818A1, “Cephalosporin C acylases” (ANTIBIOTICOS S.p.A., priority 2004, published 2005):
Numbering of substitutions follows the chain as printed. Numbers in names are those of the source.

B1: wild-type: Designed cephalosporin C acylase based on Pseudomonas N176 acylase, Phe at 270, C-terminal LEHHHHHH tag (Seq. ID #1) (protein)
chain: MTMAANTDRAVLQAALPPLSGSLPIPGLSASVRVRRDAWGIPHIKASGEADAYRALGFVHSQDRLFQMELTRRKALGRAAEWLGAEAAEADILVRRLGMEKVCRRDFEALGVEAKDMLRAYVAGVNAFLASGAPLPVEYGLLGAEPEPWEPWHSIAVMRRLGLLMGSVWFKLWRMLALPVVGAANALKLRYDDGGRDLLCIPPGAEADRLEADLATLRPAVDALLKAMGGDASDAAGGGSNNWAVAPGRTATGRPILAGDPHRVFEIPGFYAQHHLACDRFDMIGLTVPGVPGFPHFAHNGKVAYCVTHAFMDIHDLYLEQFAGEGRTARFGNDFEPVAWSRDRIAVRGGADREFDIVETRHGPVIAGDPRDGAALTLRSVQFAETDLSFDCLTRMPGASTVAQLYDATRGWGLIDHNLVAGDVAGSIGHLVRARVPSRPRENGWLPVPGWSGEHEWRGWIPHEAMPRVIDPPGGIIVTANNRVVADDHPDYLCTDCHPPYRAERIMKRLVANPAFAVDDAAAIHADTLSPHVGLLRRRLEALGARDDSAAEGLRQMLVAWDGRMDAASEVASAYNAFRRALTRLVTDRSGLEQAISHPFAAVAPGVSPQGQVWWAVPTLLRDDDAGMLKGWSWDQALSEALSVASQNLTGRSWGEEHRPRFTHPLATQFPAWAGLLNPASRPIGGDGDTVLANGLVPSAGPQATYGALSRYVFDVGNWDNSRWVVFHGASGHPASAHYADQNAPWSDCAMVPMLYSWDRIAAEAVTSQELVPALEHHHHHH
modifications: C-terminal LEHHHHHH tag; Pseudomonas
B2: A215Y: HisVAC mutant, alanine 215 replaced with Tyr (protein)
chain: B1 chain with A215Y

Tests used:
[1] = Acylase kinetics, hydrolysis of glutaryl 7-ACA (7-ACA determined at 415 nm with p-dimethylaminobenzaldehyde); type: biochemical; details: glutaryl-7ACA as the substrate; after HiTrap Chelating purification
Method: Kinetics parameters of the mutants and HisVAC acylase were determined measuring the hydrolysis of cephalosporin C or glutaryl 7-ACA in 0.1 M phosphate buffer solution, pH 8.0 at 37° C. (then converted in units at 25° C.). The amount of 7-ACA is determined spectrophotometrically, using a standard curve, measuring the yellow intensity at 415 nm (Schiff base), resulting upon reaction with p-dimethylaminobenzaldehyde, using modified Bulasingham method (Biochem. Biophys. Acta 276, 250, 1972).
One acylase unit is the amount of enzyme (in solution or immobilized) which, under the assay conditions, produces one micromole of 7-ACA/minute.

[2] = Stability of the enzyme (pH, temperature); type: physicochemical
Method: (§1) Purified HisVAC is stable after 120 min incubation at pH ranging from 5 to 9. Enzymatic activity increases as a function of the pH of the reaction solution, in the range 5-10, reaching the highest value at 40° C. after 30 minutes reaction.

[3] = Dependence of enzymatic activity on pH and temperature; type: biochemical; details: after 30 minutes reaction
Method: as §1

[4] = Conversion of cephalosporin C to 7-ACA with acylase in solution (HPLC); type: biochemical; details: 2.27 g/l cephalosporin C, 167.2 total units
Method: 0.053 g cephalosporin C, dihydrate sodium salt (86% purity) is dissolved in 20 ml of 100 mM potassium phosphate buffer, pH 8 (2.27 g/l, assuming a 100% purity) and added to 6.4 ml purified acylase (167.2 total units). The mixture is incubated at 20° C., under stirring, keeping the pH at 8 by addition of diluted sodium hydroxide.

| Molecule | Specific activity of purified enzyme [1] | Stability to pH ([2]; 120 min incubation at pH ranging from 5 to 9) | Temperature of highest enzymatic activity [3] | Maximum conversion to 7-ACA ([4]; 100 mM potassium phosphate pH 8, 20° C., HPLC) | Time to maximum conversion to 7-ACA ([4]; pH 8, 20° C.) | Thermal stability ([2]; temperatures higher than 25° C.) |
| --- | --- | --- | --- | --- | --- | --- |
| B1 | 6.5 U/mg proteins | stable | 40 °C | 92.8% | 150 min | – |
| B2 | – | – | – | – | – | more stable |
